Assay results: the supplement of paper PMC10065799, “High-throughput profiling of sequence recognition by tyrosine kinases and SH2 domains using bacterial peptide display” (eLife, 2023)

Columns and labels:
[1] = target: SHP2-C SH2; test: SH2 binding enrichment of the phosphorylated peptide, bacterial display (enrichment ratio); higher = better substrate or ligand; peptides without Tyr show the background
[2] = target: Grb2 SH2 (UniProt P62993); test: as above
[3] = target: c-Src SH2; test: as above
[4] = target: Fyn (UniProt P06241); test: phosphorylation enrichment, bacterial display (enrichment ratio); higher = better substrate or ligand; peptides without Tyr show the background
Sequence of Fyn (P06241 whole entry, looked up): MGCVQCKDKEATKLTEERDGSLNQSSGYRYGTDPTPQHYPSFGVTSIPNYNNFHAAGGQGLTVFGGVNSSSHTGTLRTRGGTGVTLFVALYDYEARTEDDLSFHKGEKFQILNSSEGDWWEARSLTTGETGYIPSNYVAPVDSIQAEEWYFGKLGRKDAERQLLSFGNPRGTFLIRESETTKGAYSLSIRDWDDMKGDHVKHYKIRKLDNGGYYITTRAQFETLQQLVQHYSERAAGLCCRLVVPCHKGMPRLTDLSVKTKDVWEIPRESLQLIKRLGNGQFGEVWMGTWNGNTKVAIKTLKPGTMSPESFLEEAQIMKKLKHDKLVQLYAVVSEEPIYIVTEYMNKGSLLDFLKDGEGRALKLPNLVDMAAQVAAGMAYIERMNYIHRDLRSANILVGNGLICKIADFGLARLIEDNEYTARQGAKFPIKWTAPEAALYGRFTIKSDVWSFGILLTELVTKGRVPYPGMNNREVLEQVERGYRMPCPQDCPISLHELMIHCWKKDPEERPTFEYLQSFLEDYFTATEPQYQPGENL

[5] = target: MERTK (UniProt Q12866); test: as above
[6] = target: Hck (UniProt P08631); test: as above
Sequence of Hck (P08631 whole entry, looked up): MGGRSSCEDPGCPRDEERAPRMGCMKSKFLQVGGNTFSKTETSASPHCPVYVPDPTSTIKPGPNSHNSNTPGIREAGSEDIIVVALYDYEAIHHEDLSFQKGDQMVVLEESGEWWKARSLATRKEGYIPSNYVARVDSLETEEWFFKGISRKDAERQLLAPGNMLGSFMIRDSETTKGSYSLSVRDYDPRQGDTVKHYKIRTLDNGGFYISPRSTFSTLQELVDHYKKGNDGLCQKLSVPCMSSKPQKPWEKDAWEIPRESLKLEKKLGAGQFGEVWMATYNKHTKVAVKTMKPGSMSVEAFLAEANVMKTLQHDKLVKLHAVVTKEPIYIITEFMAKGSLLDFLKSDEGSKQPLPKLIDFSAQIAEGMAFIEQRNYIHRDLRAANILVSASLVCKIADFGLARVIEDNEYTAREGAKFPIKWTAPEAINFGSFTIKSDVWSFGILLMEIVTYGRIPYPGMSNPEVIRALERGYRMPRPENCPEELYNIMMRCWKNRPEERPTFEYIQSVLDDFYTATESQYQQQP

[7] = test system: c-Src; test: as above
[8] = target: EPHB1 (UniProt P54762); test: as above
Sequence of EPHB1 (P54762 whole entry, looked up): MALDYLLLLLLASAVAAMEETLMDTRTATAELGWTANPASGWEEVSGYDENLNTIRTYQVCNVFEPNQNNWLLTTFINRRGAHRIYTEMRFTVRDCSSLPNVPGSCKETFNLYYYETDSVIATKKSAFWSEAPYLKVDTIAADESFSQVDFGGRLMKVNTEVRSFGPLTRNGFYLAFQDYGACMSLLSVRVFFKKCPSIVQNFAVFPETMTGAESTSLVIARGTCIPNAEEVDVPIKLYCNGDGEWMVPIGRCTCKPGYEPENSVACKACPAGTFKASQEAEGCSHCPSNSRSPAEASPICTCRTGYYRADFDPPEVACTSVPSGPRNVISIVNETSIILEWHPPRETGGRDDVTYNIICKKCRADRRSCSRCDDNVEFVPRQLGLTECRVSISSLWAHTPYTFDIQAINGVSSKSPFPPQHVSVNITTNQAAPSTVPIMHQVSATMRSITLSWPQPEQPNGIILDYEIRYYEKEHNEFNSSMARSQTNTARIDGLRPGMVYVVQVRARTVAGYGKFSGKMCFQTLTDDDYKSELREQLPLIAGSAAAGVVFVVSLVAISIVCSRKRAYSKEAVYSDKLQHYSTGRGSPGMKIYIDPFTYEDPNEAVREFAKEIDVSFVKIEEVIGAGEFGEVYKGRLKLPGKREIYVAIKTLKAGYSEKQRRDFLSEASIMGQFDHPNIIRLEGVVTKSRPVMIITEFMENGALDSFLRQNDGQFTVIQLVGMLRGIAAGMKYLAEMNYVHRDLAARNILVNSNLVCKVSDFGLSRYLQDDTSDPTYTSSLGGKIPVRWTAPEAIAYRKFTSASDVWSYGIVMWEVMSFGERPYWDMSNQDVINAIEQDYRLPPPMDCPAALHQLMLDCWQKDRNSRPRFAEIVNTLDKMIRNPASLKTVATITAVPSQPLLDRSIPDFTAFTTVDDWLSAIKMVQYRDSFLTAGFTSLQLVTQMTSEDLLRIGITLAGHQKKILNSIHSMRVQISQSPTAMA

[9] = target: FGFR3 (UniProt P22607); test: as above
[10] = target: FGFR1 (UniProt P11362); test: as above
Sequence of FGFR1 (P11362 whole entry, looked up): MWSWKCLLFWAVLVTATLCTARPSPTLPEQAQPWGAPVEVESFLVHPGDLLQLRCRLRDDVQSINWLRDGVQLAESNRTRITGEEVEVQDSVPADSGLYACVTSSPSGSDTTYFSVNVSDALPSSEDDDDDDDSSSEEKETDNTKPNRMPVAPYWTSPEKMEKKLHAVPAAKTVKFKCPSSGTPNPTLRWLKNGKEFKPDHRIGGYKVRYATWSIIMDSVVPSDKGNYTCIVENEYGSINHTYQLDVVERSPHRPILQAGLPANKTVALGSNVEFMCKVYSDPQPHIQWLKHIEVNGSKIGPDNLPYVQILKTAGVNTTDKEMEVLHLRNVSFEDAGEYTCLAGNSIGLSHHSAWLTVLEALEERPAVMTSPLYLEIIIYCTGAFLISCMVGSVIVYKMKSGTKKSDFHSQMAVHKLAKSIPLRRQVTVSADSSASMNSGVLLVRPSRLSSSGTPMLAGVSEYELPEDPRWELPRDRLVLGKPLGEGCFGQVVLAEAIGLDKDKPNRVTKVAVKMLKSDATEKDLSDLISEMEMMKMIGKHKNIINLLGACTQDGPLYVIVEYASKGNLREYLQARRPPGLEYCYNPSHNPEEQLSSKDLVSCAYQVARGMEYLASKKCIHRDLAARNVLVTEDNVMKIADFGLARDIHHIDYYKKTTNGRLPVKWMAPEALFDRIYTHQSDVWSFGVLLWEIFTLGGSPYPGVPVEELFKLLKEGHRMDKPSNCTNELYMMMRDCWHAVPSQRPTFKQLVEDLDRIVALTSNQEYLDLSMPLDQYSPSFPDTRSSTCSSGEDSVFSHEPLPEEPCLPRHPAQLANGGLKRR

[11] = test system: AncSZ; test: as above
[12] = target: Fes (UniProt P07332); test: as above
Sequence of Fes (P07332 whole entry, looked up): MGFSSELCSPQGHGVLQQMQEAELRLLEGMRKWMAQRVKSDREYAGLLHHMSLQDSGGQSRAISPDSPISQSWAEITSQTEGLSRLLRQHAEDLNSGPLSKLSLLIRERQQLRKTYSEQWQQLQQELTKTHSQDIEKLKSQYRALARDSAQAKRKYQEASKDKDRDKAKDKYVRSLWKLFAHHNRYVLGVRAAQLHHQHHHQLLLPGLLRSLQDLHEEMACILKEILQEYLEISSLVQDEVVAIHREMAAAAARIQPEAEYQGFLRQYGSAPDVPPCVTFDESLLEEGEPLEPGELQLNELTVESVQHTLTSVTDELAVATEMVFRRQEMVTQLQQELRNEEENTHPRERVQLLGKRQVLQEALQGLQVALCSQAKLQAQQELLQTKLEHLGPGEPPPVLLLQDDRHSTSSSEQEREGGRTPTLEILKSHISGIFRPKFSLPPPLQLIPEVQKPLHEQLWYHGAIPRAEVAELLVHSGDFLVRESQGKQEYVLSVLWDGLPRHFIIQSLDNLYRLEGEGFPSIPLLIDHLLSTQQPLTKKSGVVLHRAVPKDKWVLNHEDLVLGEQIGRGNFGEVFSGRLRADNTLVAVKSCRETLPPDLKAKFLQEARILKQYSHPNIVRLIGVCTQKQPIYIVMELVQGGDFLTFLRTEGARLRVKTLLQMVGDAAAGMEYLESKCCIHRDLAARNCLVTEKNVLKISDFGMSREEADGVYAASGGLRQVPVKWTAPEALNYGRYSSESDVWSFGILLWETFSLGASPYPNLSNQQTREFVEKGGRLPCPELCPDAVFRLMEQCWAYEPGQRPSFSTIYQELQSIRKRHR

[13] = test system: c-Abl (mouse); test: as above
[14] = target: EPHB2 (UniProt P29323); test: as above
Sequence of EPHB2 (P29323 whole entry, looked up): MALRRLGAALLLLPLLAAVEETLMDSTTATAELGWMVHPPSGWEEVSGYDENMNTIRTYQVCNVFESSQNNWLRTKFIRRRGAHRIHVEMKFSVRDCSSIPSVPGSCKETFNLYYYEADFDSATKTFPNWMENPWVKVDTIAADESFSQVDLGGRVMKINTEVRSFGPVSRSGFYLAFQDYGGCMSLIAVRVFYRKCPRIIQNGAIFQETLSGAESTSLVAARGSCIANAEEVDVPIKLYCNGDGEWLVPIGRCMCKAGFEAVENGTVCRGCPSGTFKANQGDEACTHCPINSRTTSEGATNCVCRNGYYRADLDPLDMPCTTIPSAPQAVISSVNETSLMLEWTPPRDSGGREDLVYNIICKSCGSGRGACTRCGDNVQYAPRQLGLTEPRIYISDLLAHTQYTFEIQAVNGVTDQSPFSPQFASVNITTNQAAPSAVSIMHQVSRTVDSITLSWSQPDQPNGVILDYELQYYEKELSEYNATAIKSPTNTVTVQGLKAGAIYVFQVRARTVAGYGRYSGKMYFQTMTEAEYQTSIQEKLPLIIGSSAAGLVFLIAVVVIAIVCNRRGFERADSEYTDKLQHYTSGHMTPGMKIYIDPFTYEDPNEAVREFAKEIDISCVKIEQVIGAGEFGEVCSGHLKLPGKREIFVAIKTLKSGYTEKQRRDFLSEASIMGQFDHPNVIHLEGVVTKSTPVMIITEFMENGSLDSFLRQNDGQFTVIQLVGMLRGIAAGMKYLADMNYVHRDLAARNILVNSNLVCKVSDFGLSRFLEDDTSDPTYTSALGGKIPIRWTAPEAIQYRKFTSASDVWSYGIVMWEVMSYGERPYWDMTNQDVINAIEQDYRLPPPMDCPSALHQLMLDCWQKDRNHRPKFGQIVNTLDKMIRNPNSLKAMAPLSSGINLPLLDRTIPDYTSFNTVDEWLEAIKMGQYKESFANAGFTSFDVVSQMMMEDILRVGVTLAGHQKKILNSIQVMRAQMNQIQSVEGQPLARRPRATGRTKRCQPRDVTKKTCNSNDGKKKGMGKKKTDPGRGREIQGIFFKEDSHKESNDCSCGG

[15] = test system: Fer (mouse); test: as above
[16] = target: Jak2 (UniProt O60674); test: as above
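Wherever SH2 binding enrichment of the phosphorylated peptide, bacterial display is given: peptide library displayed on the E. coli surface as eCPX fusions, selected cells deep-sequenced, score is each peptide's frequency after selection divided by its frequency in the input.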
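Wherever phosphorylation enrichment, bacterial display is given: 11-residue human phosphosite peptides and single-mutation variants displayed on the E. coli surface, counted by deep sequencing, each peptide's frequency after selection divided by its frequency in the unselected input library; frequency after pTyr selection over input frequency; kinase dosed for 20-30% of maximal phosphorylation in three min.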

Sequence of Grb2 SH2 (P62993 whole entry, looked up): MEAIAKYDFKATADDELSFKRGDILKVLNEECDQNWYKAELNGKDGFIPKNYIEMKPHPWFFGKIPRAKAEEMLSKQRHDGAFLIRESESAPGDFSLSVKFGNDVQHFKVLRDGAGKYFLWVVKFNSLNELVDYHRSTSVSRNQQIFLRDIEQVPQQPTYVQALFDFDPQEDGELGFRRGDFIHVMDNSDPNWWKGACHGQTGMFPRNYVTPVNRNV

Sequence | SH2 binding enrichment [1] | SH2 binding enrichment [2] | SH2 binding enrichment [3] | phosphorylation enrichment [4] | phosphorylation enrichment [5] | phosphorylation enrichment [6] | phosphorylation enrichment [7] | phosphorylation enrichment [8] | phosphorylation enrichment [9] | phosphorylation enrichment [10] | phosphorylation enrichment [11] | phosphorylation enrichment [12] | phosphorylation enrichment [13] | phosphorylation enrichment [14] | phosphorylation enrichment [15] | phosphorylation enrichment [16]
GRTNICKNKKD [SLC26A3_Y520_Y520C] | 1.4 | 1.79 | 1.43 | 0.331 | 0.366 | 0.482 | 0.437 | 0.462 | 0.911 | 0.471 | 0.631 | 0.973 | 1.39 | 0.447 | 0.448 | 1.16
GFSRHYEDGFP [CTNND1_Y217_YF] | 0.564 | 0.708 | 1.44 | 0.428 | 0.442 | 0.435 | 0.335 | 0.432 | 0.563 | 0.352 | 0.619 | 0.739 | 0.405 | 0.451 | 0.574 | 0.608
SPYMLYQYLKQ [RPAP3_Y567_D564Y] | 3.05 | 1.52 | 1.11 | 4.34 | 9.38 | 7.66 | 5.57 | 14.1 | 4.11 | 5.62 | 1.39 | 1.24 | 3.63 | 11.4 | 10.6 | 2.23
CASQLCPRHKH [DCTN4_Y263_Y263C] | 1.2 | 1.19 | 1.43 | 0.366 | 0.358 | 0.326 | 0.312 | 0.305 | 0.332 | 0.33 | 0.477 | 0.533 | 0.451 | 0.393 | 0.367 | 0.495
GHNDVYISKHV [GRIN2A_Y1423_E1426K] | 0.651 | 0.79 | 0.395 | 0.423 | 0.347 | 0.412 | 0.352 | 0.254 | 0.364 | 0.323 | 0.373 | 0.536 | 0.376 | 0.333 | 0.313 | 0.391
IIRQLYLKWHP [SACS_Y4333_R4331Q] | 1.59 | 1.77 | 1.47 | 0.38 | 1.08 | 1.12 | 0.509 | 0.469 | 0.604 | 0.473 | 0.888 | 1.02 | 0.608 | 0.444 | 0.4 | 1.01
GLSAPYVKIHL [SYT2_Y309_D307A] | 3.06 | 1.03 | 1.07 | 0.337 | 0.43 | 0.443 | 0.383 | 0.426 | 0.714 | 0.436 | 0.747 | 0.785 | 0.509 | 0.423 | 0.527 | 0.994
HSVLNYGVCVC [JAK2_Y613_L609S] | 0.929 | 0.853 | 0.584 | 0.564 | 0.482 | 0.62 | 0.595 | 0.87 | 0.84 | 0.674 | 0.91 | 1.57 | 0.925 | 0.905 | 0.692 | 1.17
PSARTYCFKQE [KLHDC9_Y175_YF] | 0.622 | 0.944 | 0.632 | 0.622 | 0.429 | 0.413 | 0.494 | 0.386 | 0.571 | 0.469 | 0.743 | 0.802 | 0.491 | 0.595 | 0.415 | 0.624
KKKKQYKGKFL [CASK_Y708_D710G_YF] | 0.916 | 0.685 | 0.515 | 0.532 | 0.533 | 0.523 | 0.638 | 0.447 | 0.579 | 0.485 | 0.617 | 0.526 | 0.547 | 0.549 | 0.439 | 0.535
LFPANYVAPMT [GRAP2_Y324] | 0.835 | 0.828 | 0.663 | 0.446 | 0.551 | 0.551 | 0.397 | 3.55 | 0.617 | 0.535 | 0.827 | 0.91 | 0.713 | 1.31 | 0.418 | 0.649
KGELRYMHSPV [ABCD1_Y281_R285P] | 0.58 | 0.931 | 0.533 | 0.328 | 0.406 | 0.345 | 0.365 | 0.393 | 0.458 | 0.364 | 0.481 | 0.674 | 0.527 | 0.367 | 0.315 | 0.619
SIVEDYRPPFF [ACVRL1_Y421_G416S_YF] | 0.73 | 0.83 | 0.444 | 0.378 | 0.473 | 0.38 | 0.45 | 0.578 | 0.646 | 0.435 | 1.01 | 1.01 | 0.821 | 0.46 | 0.485 | 0.85
SHNELYYEAAE [VANGL1_Y344_E347A] | 0.922 | 0.726 | 1.4 | 0.986 | 1.9 | 1.1 | 1.17 | 1 | 2.54 | 2.63 | 1.6 | 1.12 | 0.801 | 0.737 | 3.52 | 1.18
CTTIHCNYMCN [TP53_Y234_Y234C] | 0.711 | 0.729 | 0.632 | 0.403 | 0.395 | 0.503 | 1.14 | 0.784 | 0.731 | 0.41 | 1.06 | 1.15 | 0.775 | 0.612 | 0.599 | 0.921
QSPQLYKQMCI [DARS1_Y253] | 0.904 | 0.904 | 0.638 | 0.796 | 0.603 | 0.634 | 0.485 | 0.836 | 0.573 | 0.461 | 0.881 | 0.896 | 0.932 | 0.559 | 0.673 | 0.917
SFPREYGSQEG [RBM10_Y48_YF] | 0.681 | 0.9 | 0.467 | 0.506 | 0.48 | 0.565 | 0.475 | 0.392 | 0.567 | 0.491 | 0.715 | 0.755 | 0.461 | 0.447 | 0.387 | 0.532

Sequence | SH2 binding enrichment [1] | SH2 binding enrichment [2] | SH2 binding enrichment [3] | phosphorylation enrichment [4] | phosphorylation enrichment [5] | phosphorylation enrichment [6] | phosphorylation enrichment [7] | phosphorylation enrichment [8] | phosphorylation enrichment [9] | phosphorylation enrichment [10] | phosphorylation enrichment [11] | phosphorylation enrichment [12] | phosphorylation enrichment [13] | phosphorylation enrichment [14] | phosphorylation enrichment [15] | phosphorylation enrichment [16]
TTKAKYKTPTF [PLD2_Y573_YF] | 0.693 | 0.778 | 0.509 | 0.326 | 0.374 | 0.4 | 0.39 | 0.305 | 0.309 | 0.224 | 0.417 | 0.476 | 0.551 | 0.235 | 0.357 | 0.416
TQNAVYSAANY [DDX5_Y535_G533A] | 0.956 | 0.88 | 0.708 | 8.89 | 5.57 | 11.1 | 6.96 | 2.46 | 0.619 | 0.586 | 0.643 | 0.924 | 4.56 | 3.99 | 2.8 | 0.527
QRVLLYVRRET [GRHL3_Y518] | 0.421 | 0.713 | 0.488 | 0.699 | 0.801 | 0.669 | 0.834 | 0.461 | 0.781 | 0.676 | 1.01 | 0.796 | 0.41 | 0.577 | 0.468 | 0.9
GLRSYYETSKM [MAGED2_Y449] | 0.638 | 0.839 | 0.842 | 0.417 | 0.546 | 0.656 | 0.591 | 0.475 | 1.13 | 1.44 | 0.592 | 0.762 | 0.534 | 0.584 | 0.465 | 0.784
FTNRNYDLDFD [MYC_Y12_YF] | 0.659 | 0.828 | 3.48 | 0.5 | 0.494 | 0.634 | 0.633 | 0.751 | 0.696 | 0.561 | 1.36 | 1.42 | 1.01 | 0.587 | 0.543 | 1.22
CGASGYSATST [CERT1_Y143_S138C] | 0.756 | 0.741 | 0.556 | 0.476 | 0.523 | 0.51 | 0.489 | 0.55 | 0.872 | 0.457 | 1.02 | 1.08 | 0.746 | 0.706 | 0.675 | 1.06
EHIEFYELDKK [PMM2_Y145_R141H] | 0.632 | 0.688 | 0.559 | 0.566 | 0.514 | 0.445 | 1.11 | 0.4 | 0.571 | 0.487 | 1.01 | 1.1 | 0.588 | 0.492 | 0.456 | 0.746
AVLSLYASGRN [ACTA1_Y145_T150N] | 0.976 | 0.867 | 0.669 | 0.44 | 0.388 | 0.688 | 0.419 | 0.519 | 0.581 | 0.436 | 0.858 | 0.989 | 0.737 | 0.557 | 0.549 | 0.958
VYYGSYSCPYG [NKAP_Y104_R106C] | 0.715 | 0.653 | 0.705 | 8.17 | 4.18 | 4.99 | 6.91 | 2.45 | 2.87 | 4.04 | 2.87 | 1.47 | 4.15 | 3.08 | 1.59 | 2.28
DIDKIYIRTGI [PIK3CA_Y355_V356I] | 0.896 | 0.857 | 0.623 | 0.479 | 0.342 | 0.481 | 0.395 | 0.585 | 0.673 | 0.521 | 1.25 | 1.01 | 0.576 | 0.543 | 0.839 | 1.06
CKRQFYLYKGK [RSPO4_Y112] | 1.15 | 1.84 | 0.856 | 0.432 | 0.331 | 0.43 | 0.312 | 0.333 | 0.704 | 0.427 | 0.836 | 0.926 | 0.438 | 0.49 | 0.431 | 0.746
VASIFYTLVIP [OR8K3_Y277] | 1.51 | 1.22 | 1.01 | 0.502 | 5.43 | 0.661 | 0.945 | 0.978 | 1.63 | 1.72 | 1.83 | 1.49 | 0.882 | 0.769 | 2.79 | 1.45
YSGDCYRIQGR [DDR2_Y741_Y740C] | 0.506 | 0.798 | 0.615 | 0.475 | 1.25 | 0.564 | 0.374 | 0.468 | 0.715 | 0.483 | 0.818 | 0.83 | 0.552 | 0.514 | 0.49 | 0.735
VGTKRYMASEV [ACVRL1_Y375_P378S] | 0.599 | 1.06 | 0.45 | 0.4 | 0.389 | 0.398 | 0.513 | 0.406 | 0.333 | 0.411 | 0.564 | 0.602 | 0.509 | 0.364 | 0.38 | 0.533
RVDRDYVLKSA [HTATIP2_Y111] | 0.653 | 0.976 | 0.418 | 0.47 | 0.857 | 0.772 | 0.961 | 0.487 | 0.585 | 0.627 | 1.08 | 0.872 | 0.709 | 0.442 | 0.665 | 0.75
AEEKEYHAEEG [EGFR_Y869_G873E] | 0.746 | 0.994 | 0.552 | 0.633 | 0.445 | 0.573 | 0.451 | 0.649 | 0.747 | 0.605 | 1.29 | 1.15 | 0.84 | 0.815 | 0.494 | 1.01
